Assays:
[1] = molecular target: T1, human MICA/B endogenously expressed on SW480 cells (human, UniProt Q29983 24-383); experiment: saturation binding of 125I-labelled antibody on SW480 cells, 25,000 cells/well; fit of total binding, non-specific binding not subtracted; x axis without unit
T1 construct: whole, on cells
T1 sequence (looked up): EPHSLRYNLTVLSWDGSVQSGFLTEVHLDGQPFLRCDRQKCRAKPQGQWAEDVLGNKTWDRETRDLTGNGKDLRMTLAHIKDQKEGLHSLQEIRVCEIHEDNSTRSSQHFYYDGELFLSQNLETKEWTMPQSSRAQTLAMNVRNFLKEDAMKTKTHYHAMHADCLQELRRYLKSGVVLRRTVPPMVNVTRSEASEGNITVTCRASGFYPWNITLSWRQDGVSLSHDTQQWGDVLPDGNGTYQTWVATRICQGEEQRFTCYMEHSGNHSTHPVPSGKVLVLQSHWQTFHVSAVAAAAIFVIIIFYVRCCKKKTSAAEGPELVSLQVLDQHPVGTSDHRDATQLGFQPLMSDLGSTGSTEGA
Procedure: (§1) Nonspecific binding was determined by binding in the presence of a titration of a 100 fold molar excess of unlabeled antibody and was subtracted from total counts per minute (CPM) to calculate specific binding. A linear standard curve of ¹²⁵I-MICA.36 concentration versus CPM was used to extrapolate specific activity, maximal nM bound ¹²⁵I-MICA.36 and thereby calculate receptor number per cell.
(§2) Specific activity of the iodinated MICA.36 was determined by plotting antibody titrations against the associated CPMs in a standard curve (FIG. 7A). The specific activity was calculated to be 164,214 CPM in 1 nM of ¹²⁵I-MICA.36. The number of receptors per cell was calculated by the following equation: (Bmax)×(Avogadro's number)×(Assay Volume)/# of cells per well.

[2] = molecular target: T2, cynomolgus monkey MICA/B clone #4 expressed on CHO cells (cynomolgus monkey); experiment: saturation binding of 125I-labelled antibody on CHO-MICA Cyno #4 cells, 25K per well (Scatchard analysis); unit from the x axis 'nM Radioligand'; curve not saturated at 20 nM
T2 construct: whole, on cells; also called cyno#4; CHO-cyno MICA clone #4
Procedure: as §1, §2

[3] = molecular target: T3, human MICB expressed on transduced cells (human, UniProt Q29980 23-382); experiment: saturation binding of 125I-labelled antibody on CHO-MICB cells, 12500 per well (Scatchard analysis); x axis 'Ab' carries no unit, nM taken from paragraph 587
T3 construct: also called MICB*005
T3 chain: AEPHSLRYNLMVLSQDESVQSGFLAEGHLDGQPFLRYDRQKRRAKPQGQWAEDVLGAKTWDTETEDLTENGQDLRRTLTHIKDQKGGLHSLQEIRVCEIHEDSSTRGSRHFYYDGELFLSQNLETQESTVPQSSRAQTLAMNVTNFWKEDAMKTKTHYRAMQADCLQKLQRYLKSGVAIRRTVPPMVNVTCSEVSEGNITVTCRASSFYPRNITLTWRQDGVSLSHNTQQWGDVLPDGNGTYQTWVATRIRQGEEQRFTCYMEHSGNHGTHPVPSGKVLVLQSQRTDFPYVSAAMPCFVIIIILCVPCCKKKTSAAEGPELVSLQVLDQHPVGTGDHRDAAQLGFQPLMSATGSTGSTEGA
Procedure: as §1, §2

[4] = molecular target: T4, human MICA/B endogenously expressed on 786-O cells (MICA allele *008) (human, UniProt Q29983 24-331); experiment: saturation binding of 125I-labelled antibody on 786-O cells, 50,000 cells/well; fit of total binding, non-specific binding not subtracted
T4 construct: it speaks of MICA/B, so MICB may be present as well; also called 786-0
T4 chain: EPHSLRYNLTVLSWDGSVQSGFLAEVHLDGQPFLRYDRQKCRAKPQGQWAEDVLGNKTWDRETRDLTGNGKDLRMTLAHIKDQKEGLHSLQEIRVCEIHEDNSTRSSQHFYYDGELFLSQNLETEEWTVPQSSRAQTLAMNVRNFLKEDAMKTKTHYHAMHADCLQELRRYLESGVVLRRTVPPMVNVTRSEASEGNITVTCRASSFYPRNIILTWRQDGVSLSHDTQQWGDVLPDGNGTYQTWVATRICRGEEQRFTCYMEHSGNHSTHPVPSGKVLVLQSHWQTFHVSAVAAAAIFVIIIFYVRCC
Procedure: as §1

[5] = molecular target: T2, cynomolgus monkey MICA/B clone #4 …; experiment: saturation binding of 125I-labelled antibody on CHO-MICA Cyno #4 cells, 25K per well; fit of total binding, non-specific binding not subtracted
Procedure: as §1

[6] = molecular target: T5, human MICA*008 expressed on CHO cells (human, UniProt Q29983 24-331); experiment: saturation binding of 125I-labelled antibody on CHO-MICA*008 cells, 12,500 cells/well (Scatchard analysis); specific = total minus binding with 100-fold unlabelled antibody; unit from the x axis 'nM Antibody'
T5 construct: also called MICA allele 008
T5 chain: T4 chain
Procedure: as §1, §2

[7] = molecular target: T4, human MICA/B endogenously expressed on …; experiment: Scatchard analysis, 125I-MICA.36 on 786-0 cells; 786-0 cells (FIG. 7F)
Procedure: as §1, §2

[8] = molecular target: T2, cynomolgus monkey MICA/B clone #4 …; experiment: flow cytometry (GMFI, FACSCalibur), CHO cells with cyno MICA #4; unit from the x axis; curve from about 13000 at 0.1 ug/ml to about 94500 GMFI at 40 ug/ml
[9] = molecular target: T6, cynomolgus monkey MICA/B clone #6 expressed on CHO cells (cynomolgus monkey); experiment: flow cytometry (GMFI, FACSCalibur), CHO cells with cyno MICA #6; unit from the x axis; curve from about 1500 at 0.1 ug/ml to about 40500 GMFI at 40 ug/ml
T6 construct: whole, on cells; also called cyno#6; CHO-cyno MICA clone #6

B1: MICA.36 (antibody, V domains shown)
VH: QVQLVESGGGVVQPGRSLRLSCAASGFTFSNYAMHWVRQAPGEGLEWVALIWYDGSNKFYGDSVKGRFTISRDNSKNTLYLQMNSLSAEDTAVYYCAREGSGHYWGQGTLVTVSS
VL: AIQLTQSPSSLSASVGDRVTITCRASQGISSALAWYQQKPGKVPKSLIYDASSLESGVPSRFSGSGSGTDFTLTISSLQPEDFATYYCQQFNSYPITFGQGTRLEIK
notes: it says that the name implies no specific constant region; Radioiodinated in the Scatchard assay; also called MICA.36 antibody
For B1, the “Kd of the total-binding curve” value [1] was 0.871 nM, the Kd [2] was 11 nM and the Kd [3] was 1.36 nM. For the same binder, the “Kd of the total-binding curve” value [4] was 0.6 nM, the “Kd of the total-binding curve” value [5] was 10.2 nM and the Kd [6] was 1.07 nM. For the same binder, the Kd [7] was roughly 0.4 nM.

B2: 19G6 (antibody, V domains shown)
VH: B1 VH
VL: B1 VL
notes: Hybridoma antibody from human IgG transgenic mice, parent of MICA.36; also called 19G6 mAb; hybridoma 19G6
Binder B2 has an EC50 [8] of 0.161 µg/mL and an EC50 [9] of 3.3 µg/mL.

— patent US20220281980A1 (Bristol-Myers Squibb, published 2022)
